Reference: publication PMC6385590 (European journal of immunology, 2015)

Molecular target: T1, interferon regulatory factor 8 (IRF8) (human (endogenous in CAL-1 and primary …, UniProt Q02556 1-426))
T1 sequence (looked up): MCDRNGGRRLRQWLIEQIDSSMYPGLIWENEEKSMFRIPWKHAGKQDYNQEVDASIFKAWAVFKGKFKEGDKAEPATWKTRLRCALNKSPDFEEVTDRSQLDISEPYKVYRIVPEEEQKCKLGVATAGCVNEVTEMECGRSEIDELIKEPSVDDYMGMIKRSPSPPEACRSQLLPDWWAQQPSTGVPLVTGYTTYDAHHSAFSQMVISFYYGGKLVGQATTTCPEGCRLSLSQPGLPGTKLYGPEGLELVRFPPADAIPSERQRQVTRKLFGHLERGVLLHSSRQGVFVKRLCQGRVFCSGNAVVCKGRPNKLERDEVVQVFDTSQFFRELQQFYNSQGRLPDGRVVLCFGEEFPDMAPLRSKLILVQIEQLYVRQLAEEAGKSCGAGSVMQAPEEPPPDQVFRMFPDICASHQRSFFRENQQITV
Assay: proximity ligation

fold of nuclear PLA colocalization over unstimulated cells (after 1 h CpG ODN): > 3 fold
B1: interferon regulatory factor 5 (IRF5) (natural protein, UniProt Q13568 1-498, looked up)
chain: MNQSIPVAPTPPRRVRLKPWLVAQVNSCQYPGLQWVNGEKKLFCIPWRHATRHGPSQDGDNTIFKAWAKETGKYTEGVDEADPAKWKANLRCALNKSRDFRLIYDGPRDMPPQPYKIYEVCSNGPAPTDSQPPEDYSFGAGEEEEEEEELQRMLPSLSLTEDVKWPPTLQPPTLRPPTLQPPTLQPPVVLGPPAPDPSPLAPPPGNPAGFRELLSEVLEPGPLPASLPPAGEQLLPDLLISPHMLPLTDLEIKFQYRGRPPRALTISNPHGCRLFYSQLEATQEQVELFGPISLEQVRFPSPEDIPSDKQRFYTNQLLDVLDRGLILQLQGQDLYAIRLCQCKVFWSGPCASAHDSCPNPIQREVKTKLFSLEHFLNELILFQKGQTNTPPPFEIFFCFGEEWPDRKPREKKLITVQVVPVAARLLLEMFSGELSWSADSIRLQISNPDLKDRMVEQFKELHHIWQSQQRLQPVAQAPPGAGLGVGQGPWPMHPAGMQ
